Measured values published in IntAct's records for PubMed 29039417.

B1: Protein PTHB1 (Homo sapiens), Q3SYG4 (parent)
chain: MSLFKARDWWSTILGDKEEFDQGCLCLANVDNSGNGQDKIIVGSFMGYLRIFSPHPAKTGDGAQAEDLLLEVDLRDPVLQVEVGKFVSGTEMLHLAVLHSRKLCVYSVSGTLGNVEHGNQCQMKLMYEHNLQRTACNMTYGSFGGVKGRDLICIQSMDGMLMVFEQESYAFGRFLPGFLLPGPLAYSSRTDSFLTVSSCQQVESYKYQVLAFATDADKRQETEQQKLGSGKRLVVDWTLNIGEQALDICIVSFNQSASSVFVLGERNFFCLKDNGQIRFMKKLDWSPSCFLPYCSVSEGTINTLIGNHNNMLHIYQDVTLKWATQLPHIPVAVRVGCLHDLKGVIVTLSDDGHLQCSYLGTDPSLFQAPNVQSRELNYDELDVEMKELQKIIKDVNKSQGVWPMTEREDDLNVSVVVSPNFDSVSQATDVEVGTDLVPSVTVKVTLQNRVILQKAKLSVYVQPPLELTCDQFTFEFMTPDLTRTVSFSVYLKRSYTPSELEGNAVVSYSRPTDRNPDGIPRVIQCKFRLPLKLICLPGQPSKTASHKITIDTNKSPVSLLSLFPGFASQSDDDQVNVMGFHFLGGARITVLASKTSQRYRIQSEQFEDLWLITNELILRLQEYFEKQGVKDFACSFSGSIPLQEYFELIDHHFELRINGEKLEELLSERAVQFRAIQRRLLARFKDKTPAPLQHLDTLLDGTYKQVIALADAVEENQGNLFQSFTRLKSATHLVILLIALWQKLSADQVAILEAAFLPLQEDTQELGWEETVDAAISHLLKTCLSKSSKEQALNLNSQLNIPKDTSQLKKHITLLCDRLSKGGRLCLSTDAAAPQTMVMPGGCTTIPESDLEERSVEQDSTELFTNHRHLTAETPRPEVSPLQGVSE
partner: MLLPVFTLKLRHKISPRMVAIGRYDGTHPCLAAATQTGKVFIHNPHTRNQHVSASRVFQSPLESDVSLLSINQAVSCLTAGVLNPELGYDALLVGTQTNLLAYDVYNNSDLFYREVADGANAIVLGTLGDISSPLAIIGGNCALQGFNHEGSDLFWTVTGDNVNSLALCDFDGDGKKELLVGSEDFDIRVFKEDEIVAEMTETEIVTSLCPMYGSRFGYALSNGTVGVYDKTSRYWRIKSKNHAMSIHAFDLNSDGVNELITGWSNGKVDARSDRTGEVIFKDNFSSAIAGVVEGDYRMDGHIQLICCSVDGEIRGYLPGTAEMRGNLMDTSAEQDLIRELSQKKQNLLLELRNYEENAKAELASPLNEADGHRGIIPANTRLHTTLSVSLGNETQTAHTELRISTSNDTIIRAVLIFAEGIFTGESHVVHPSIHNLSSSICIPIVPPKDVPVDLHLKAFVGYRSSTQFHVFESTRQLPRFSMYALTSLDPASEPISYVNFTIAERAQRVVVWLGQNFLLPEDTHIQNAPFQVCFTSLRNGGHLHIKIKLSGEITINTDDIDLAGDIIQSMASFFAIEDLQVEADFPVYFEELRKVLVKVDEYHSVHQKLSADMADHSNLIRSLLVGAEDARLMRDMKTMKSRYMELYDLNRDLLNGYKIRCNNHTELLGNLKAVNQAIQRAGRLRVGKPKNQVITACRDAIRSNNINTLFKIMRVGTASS
B2: Protein PTHB1 (Homo sapiens), Q3SYG4 (parent)
chain: B1 chain
partner: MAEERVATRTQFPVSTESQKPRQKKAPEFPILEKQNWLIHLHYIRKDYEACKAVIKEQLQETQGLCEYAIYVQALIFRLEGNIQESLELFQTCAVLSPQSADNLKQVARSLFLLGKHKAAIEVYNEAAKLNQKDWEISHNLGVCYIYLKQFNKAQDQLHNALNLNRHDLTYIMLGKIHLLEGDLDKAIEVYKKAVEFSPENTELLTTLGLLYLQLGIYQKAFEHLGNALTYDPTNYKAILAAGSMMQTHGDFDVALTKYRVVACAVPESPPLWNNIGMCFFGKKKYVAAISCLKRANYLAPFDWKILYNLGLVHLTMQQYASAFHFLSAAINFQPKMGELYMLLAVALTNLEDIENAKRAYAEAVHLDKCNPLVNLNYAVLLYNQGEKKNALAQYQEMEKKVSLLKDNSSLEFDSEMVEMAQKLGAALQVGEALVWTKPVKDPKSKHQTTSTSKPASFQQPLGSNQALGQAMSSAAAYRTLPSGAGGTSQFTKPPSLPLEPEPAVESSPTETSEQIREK

Variants of: B1
Details: with bbs2_human BBS2, Q9BXC9

Variant	effect of a mutation on the interaction
T871K	with no effect
A872E	with no effect
A872K	with no effect
E873A	with no effect
E873K	with no effect
T874A	with no effect
T874E	with no effect
T874K	with no effect
P875A	with no effect
P875E	with no effect
P875K	with no effect
R876A	with no effect
R876E	with no effect
R876K	with no effect
P877A	with no effect
P877E	with no effect
P877K	with no effect
E878A	with no effect
E878K	with no effect
V879A	with no effect
V879E	with no effect
V879K	with no effect
S880A	with no effect

Variant	effect of a mutation on the interaction
S880E	with no effect
S880K	with no effect
P881A	with no effect
P881E	with no effect
P881K	with no effect
L882A	with no effect
L882E	with no effect
L882K	with no effect
Q883A	with no effect
Q883E	with no effect
Q883K	with no effect
G884A	with no effect
G884E	with no effect
G884K	with no effect
V885A	with no effect
V885E	with no effect
V885K	with no effect
S886A	with no effect
S886E	with no effect
S886K	with no effect
E887A	with no effect
E887K	with no effect

Variants of: B2
Details: with bbs4_human BBS4, Q96RK4

Variant	effect of a mutation on the interaction
T405A	with no effect
T405E	with no effect
T405K	with no effect
E406A	with no effect
E406K	with no effect
R407A	with no effect
R407E	with no effect
R407K	with no effect
E408A	with no effect
E408K	with no effect
D409A	with no effect
D409E	with no effect
D409K	with no effect
D410A	with no effect
D410E	with no effect
D410K	with no effect
L411A	with no effect
L411E	with no effect
L411K	with no effect
N412A	with no effect
N412E	with no effect
N412K	with no effect
V413A	with no effect
V413E	with no effect

Variant	effect of a mutation on the interaction
V413K	with no effect
S414A	with no effect
S414E	with no effect
S414K	with no effect
V415A	with no effect
V415E	with no effect
V415K	with no effect
V416A	with no effect
V416E	with no effect
V416K	with no effect
V417A	with no effect
V417E	with no effect
V417K	with no effect
S418A	with no effect
S418E	with no effect
S418K	with no effect
P419A	with no effect
P419E	with no effect
P419K	with no effect
N420A	with no effect
N420E	with no effect
N420K	with no effect
F421A	with no effect
F421E	with no effect

Variant	effect of a mutation on the interaction
F421K	with no effect
D422A	with no effect
D422E	with no effect
D422K	with no effect
S423A	with no effect
S423E	with no effect
S423K	with no effect
V424A	with no effect
V424E	with no effect
V424K	with no effect
S425A	with no effect
S425E	with no effect
S425K	with no effect
Q426A	with no effect
Q426E	with no effect
Q426K	with no effect
A427E	with no effect
A427K	with no effect
T428A	with no effect
T428E	with no effect
T428K	with no effect
D429A	with no effect
D429E	with no effect
D429K	with no effect

Variant	effect of a mutation on the interaction
V430A	with no effect
V430E	with no effect
V430K	with no effect
E431A	with no effect
E431K	with no effect
V432A	with no effect
V432E	with no effect
V432K	with no effect
G433A	with no effect
G433E	with no effect
G433K	with no effect
T434A	with no effect
T434E	with no effect
T434K	with no effect
D435A	with no effect
D435E	with no effect
D435K	with no effect
L436A	with no effect
L436E	with no effect
L436K	with no effect
V437A	with no effect
V437E	with no effect
V437K	with no effect
P438A	with no effect

Variant	effect of a mutation on the interaction
P438E	with no effect
P438K	with no effect
S439A	with no effect
S439E	with no effect
S439K	with no effect
V440A	with no effect
V440E	with no effect
V440K	disrupting interaction strength
T441A	with no effect
T441E	with no effect
T441K	with no effect
V442A	with no effect
V442E	with no effect
V442K	with no effect
K443A	with no effect
K443E	with no effect
V444A	with no effect
V444E	with no effect
V444I	disrupting interaction strength
V444K	with no effect
T445A	with no effect
T445E	with no effect
T445K	with no effect
L446A	with no effect

Variant	effect of a mutation on the interaction
L446E	with no effect
L446K	with no effect
Q447A	with no effect
Q447E	with no effect
Q447K	with no effect
N448A	with no effect
N448E	with no effect
N448K	with no effect
R449A	with no effect
R449E	with no effect
R449K	with no effect
V450A	with no effect
V450E	with no effect
V450K	with no effect
V450M	disrupting interaction strength
I451A	with no effect
I451E	with no effect
I451K	with no effect
L452A	with no effect
L452E	with no effect
L452K	with no effect
